Data reported in publication PMC8146696, “Live-Cell Analysis of Human Cytomegalovirus DNA Polymerase Holoenzyme Assembly by Resonance Energy Transfer Methods” (Microorganisms, 2021).
Residue numbers refer to the chain shown, from its start. Names may count otherwise.

B1: FLAG-tagged ppUL44 (natural protein)
chain: MDRKTRLSEPPTLALRLKPYKTAIQQLRSVIRALKENTTVTFLPTPSLILQTVRSHCVSKITFNSSCLYITDKSFQPKTINNSTPLLGNFMYLTSSKDLTKFYVQDISDLSAKISMCAPDFNMEFSSACVHGQDIVRESENSAVHVDLDFGVVADLLKWIGPHTRVKRNVKKAPCPTGTVQILVHAGPPAIKFILTNGSELEFTANNRVSFHGVKNMRINVQLKNFYQTLLNCAVTKLPCTLRIVTEHDTLLYVASRNGLFAVENFLTEEPFQRGDPFDKNYVGNSGKSRGGGGGGGSLSSLANAGGLHDDGPGLDNDLMNEPMGLGGLGGGGGGGGKKHDRGGGGGSGTRKMSSGGGGGDHDHGLSSKEKYEQHKITSYLTSKGGSGGGGGGGGGGLDRNSGNYFNDAKEESDSEDSVTFEFVPNTKKQKCG
notes: also called FLAG-UL44; pDESTnFLAG-UL44; source: HEK293T or HEK293A-derived cell lines, transiently transfected, in cells
B2: HCMV DNA polymerase catalytic subunit pUL54, C-terminal domain UL54(1125–1242) (domain or fragment)
chain: VSRSDAIDGTDDDADGGGVEESNRRGGEPAKKRARKPPSAVCNYEVAEDPSYVREHGVPIHADKYFEQVLKAVTNVLSPVFPGGETARKDKFLHMVLPRRLHLEPAFLPYSVKAHECC
notes: also called CFP-UL54(1125–1242); RLuc-UL54; source: HEK293T, transiently transfected, in cells; not shown: CFP (FRET) or RLuc (BRET), N-terminal, kept
B3: HCMV DNA polymerase processivity factor ppUL44, UL44(2–433), wild type (natural protein)
chain: DRKTRLSEPPTLALRLKPYKTAIQQLRSVIRALKENTTVTFLPTPSLILQTVRSHCVSKITFNSSCLYITDKSFQPKTINNSTPLLGNFMYLTSSKDLTKFYVQDISDLSAKISMCAPDFNMEFSSACVHGQDIVRESENSAVHVDLDFGVVADLLKWIGPHTRVKRNVKKAPCPTGTVQILVHAGPPAIKFILTNGSELEFTANNRVSFHGVKNMRINVQLKNFYQTLLNCAVTKLPCTLRIVTEHDTLLYVASRNGLFAVENFLTEEPFQRGDPFDKNYVGNSGKSRGGGGGGGSLSSLANAGGLHDDGPGLDNDLMNEPMGLGGLGGGGGGGGKKHDRGGGGGSGTRKMSSGGGGGDHDHGLSSKEKYEQHKITSYLTSKGGSGGGGGGGGGGLDRNSGNYFNDAKEESDSEDSVTFEFVPNTKKQKCG
notes: also called YFP-UL44; CFP-UL44; source: HEK293T, transiently transfected, in cells; YFP-UL44 also stably expressed in HEK293A (lentiviral transduction, puromycin); RLuc-UL44 also stably expressed in HEK293A clone 1B2 (G418); not shown: YFP (acceptor copy) or CFP (FRET donor copy) or RLuc (BRET donor copy), N-terminal, kept
B4: ppUL44 UL44(2–433) I135A (natural protein)
chain: B3 chain with I134A
notes: source: HEK293T, transiently transfected, in cells; not shown: YFP (acceptor copy) or RLuc (BRET donor copy), N-terminal, kept
B5: ppUL44 UL44(2–433) L86A/L87A (natural protein)
chain: B3 chain with L85A, L86A
notes: source: HEK293T, transiently transfected, in cells; not shown: YFP (acceptor copy) or CFP (FRET donor copy) or RLuc (BRET donor copy), N-terminal, kept

How the values were obtained:
[1] = target: ppUL44 UL44(2–433) ΔNLS (K428V/K429A/K431) (human cytomegalovirus (HCMV)) (UniProt P16790); assay: FRET or BRET; BRET saturation in living HEK293T cells; fixed RLuc donor plasmid, increasing YFP acceptor plasmid (0-500 ng); one-site hyperbola of BRET ratio against YFPnet/RLuc gives B50 (relative affinity)
[2] = target: pUL54 C-terminal 20 aa C-terminal 20 aa (Human cytomegalovirus) (UniProt P08546); settings: cited from earlier work
[3] = target: UL44Δ290 1-290 (Human cytomegalovirus) (UniProt P16790); assay: gel filtration; settings: cited from earlier work
[4] = target: ppUL44 UL44(2–433) Δloop (R165G/K167N/K168G) (human cytomegalovirus (HCMV)) (UniProt P16790); assay: FRET or BRET; BRET saturation in living HEK293T cells; fixed RLuc donor plasmid, increasing YFP acceptor plasmid (0-500 ng); one-site hyperbola of BRET ratio against YFPnet/RLuc gives B50 (relative affinity)
[5] = target: B2; assay: FRET or BRET; BRET inhibition, system 1: HEK293T transiently expressing RLuc donor and YFP-UL44 acceptor at about 50% of BRETmax, with increasing amounts of pDESTnFLAG-UL44 or pDESTnFLAG-UL42; settings: partners not purified
[6] = target: B5; assay: FRET or BRET; BRET saturation in living HEK293T cells; fixed RLuc donor plasmid, increasing YFP acceptor plasmid (0-500 ng); one-site hyperbola of BRET ratio against YFPnet/RLuc gives B50 (relative affinity); settings: partners not purified
ppUL44 UL44(2–433) I135A = target: B4; assay: as above; settings: partners not purified
[7] = target: B3; assay: as above; settings: partners not purified
[8] = target: the molecule itself; assay: FRET or BRET; BRET at one donor/acceptor ratio in living HEK293T cells; RLuc fusion donor with or without YFP-UL44 acceptor, both transient; 48 h post transfection, cells in PBS, coelenterazine 5 uM
[9] = target: the molecule itself; assay: FRET or BRET; BRET in monoclonal HEK293A lines (from clone 1B2) stably expressing both YFP-UL44 and RLuc-UL44
[10] = target: the molecule itself; assay: FRET or BRET; BRET saturation in living HEK293T cells; fixed RLuc donor plasmid, increasing YFP acceptor plasmid (0-500 ng); one-site hyperbola of BRET ratio against YFPnet/RLuc gives B50 (relative affinity)

## ppUL44 UL44(2–433) ΔNLS (K428V/K429A/K431) (from UniProt P16790 2-433) (natural protein)
[1]
  B50: 11.2

## UL44Δ290 1-290 (from UniProt P16790)
[2]
  Kd: 700 nM
[3]
  Kd: 250 nM

## HCMV DNA polymerase catalytic subunit pUL54, C-terminal domain UL54(1125–1242) (from UniProt P08546 1125-1242) (domain or fragment)
[1]
  B50: 15.1
[4]
  B50: 34.4

## ppUL44 UL44(2–433) Δloop (R165G/K167N/K168G) (from UniProt P16790 2-433) (natural protein)
[4]
  B50: 12.6

## B1
[5]
  percent inhibition of the RLuc-UL54/YFP-UL44 BRET ratio: ~40%

## B2
[6]
  B50: 11.5
ppUL44 UL44(2–433) I135A
  B50: 81.2
[7]
  B50: 20

## B3
[8]
  BRET ratio: 0.36 ± 0.1
[9]
  BRET ratio: 0.17
[10]
  B50: 19

## B4
[10]
  B50: 25.5

## B5
[10]
  B50: 73.7
